Assay results taken from publication PMC4403447, “Hsp90 regulates the dynamics of its cochaperone Sti1 and the transfer of Hsp70 between modules” (Nature Communications, 2015).
Positions count from the first letter of the chain named. Values belong to the binder of their own block, whether it stands above or below them.

What was measured:
Settings in all cases: both partners purified
yHsp70 (Ssa1) [1] = target: T1, yHsp70 (Ssa1) (yeast, UniProt P10591 1-642); test: SAXS; mixtures of a Sti1 variant and Hsp70 at 1:1 and 1:2; solute 1 to 10 mg/ml; in-house SAXSess mc2; masses from I(0)
T1 construct: Yeast Hsp70 Ssa1, full length; The strain carries a 6xHis-SSA1 gene; The methods speak of cleavage of the His6-SUMO tag or His-tag in general, and it is not clear whether this holds for Ssa1; source: Pichia pastoris KM71H-Ssa1, purified (Hi-Trap, Superdex 200)

yHsp70 (Ssa1) [2] = target: T1, yHsp70 (Ssa1); test: SPR; Hsp70 amine-coupled to a CM5 chip, Sti1 variants as analyte; 40 mM Hepes pH 7.5, 20 mM KCl, 5 mM MgCl2, 0.005% Tween; 10 μl/min; 20 °C; Langmuir isotherm; affinities shown normalized to wild-type Sti1
[3] = target: T2, fluorescein-labelled yHsp70 (Ssa1) (yeast, UniProt P10591 1-642, 5-(and -6)-carboxyfluorescein covalently coupled (amine-reactive dye); sites not stated); test: AUC; ternary complexes, fluorescence detection: 0.5 μM fluorescein-labelled yHsp70 and 3 μM yHsp90 with 0.5 to 8 μM Sti1 variant; 10 mM potassium phosphate pH 7.5; 20 °C; 42,000 r.p.m.; dc/dt plots
T2 construct: Yeast Hsp70 Ssa1, full length, labelled with carboxyfluorescein; Same protein as m11, with the fluorescent label used for AUC; also called fluorescently labelled yHsp70; fluorescently labelled Ssa1; source: Pichia pastoris KM71H-Ssa1, purified (Hi-Trap, Superdex 200), then labelled

yHsp90 (Hsp82) = target: T3, yHsp90 (Hsp82) (yeast, UniProt P02829 1-709); test: as above
T3 construct: Yeast Hsp90 Hsp82; source: E. coli BL21 (DE3) Codon Plus, purified (Hi-Trap, Superdex 200); not shown: 6xHis-SUMO or thrombin-cleavable 6xHis, N-terminal, cleaved

T1 sequence (P10591 whole entry): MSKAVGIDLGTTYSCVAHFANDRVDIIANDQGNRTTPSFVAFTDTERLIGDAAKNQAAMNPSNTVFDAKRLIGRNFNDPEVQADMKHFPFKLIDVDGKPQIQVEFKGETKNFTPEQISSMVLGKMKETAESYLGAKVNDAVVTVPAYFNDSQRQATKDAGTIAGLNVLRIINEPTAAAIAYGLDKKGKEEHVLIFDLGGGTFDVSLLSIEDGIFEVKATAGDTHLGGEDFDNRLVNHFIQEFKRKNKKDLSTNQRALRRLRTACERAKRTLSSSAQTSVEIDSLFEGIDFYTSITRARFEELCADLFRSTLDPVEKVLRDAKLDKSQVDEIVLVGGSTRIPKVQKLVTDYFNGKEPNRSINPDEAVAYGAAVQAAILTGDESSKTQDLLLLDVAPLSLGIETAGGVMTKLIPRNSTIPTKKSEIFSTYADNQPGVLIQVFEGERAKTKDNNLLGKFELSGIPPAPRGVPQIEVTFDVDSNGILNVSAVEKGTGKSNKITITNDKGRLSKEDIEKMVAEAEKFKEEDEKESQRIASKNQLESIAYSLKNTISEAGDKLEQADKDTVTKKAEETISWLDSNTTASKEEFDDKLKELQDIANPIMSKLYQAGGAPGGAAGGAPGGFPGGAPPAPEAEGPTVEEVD
T2 sequence (P10591 whole entry): as above

B1: Sti1 (stress-inducible protein 1), wild type (natural protein, S. cerevisiae, UniProt P15705 1-589, looked up)
chain: MSLTADEYKQQGNAAFTAKDYDKAIELFTKAIEVSETPNHVLYSNRSACYTSLKKFSDALNDANECVKINPSWSKGYNRLGAAHLGLGDLDEAESNYKKALELDASNKAAKEGLDQVHRTQQARQAQPDLGLTQLFADPNLIENLKKNPKTSEMMKDPQLVAKLIGYKQNPQAIGQDLFTDPRLMTIMATLMGVDLNMDDINQSNSMPKEPETSKSTEQKKDAEPQSDSTTSKENSSKAPQKEESKESEPMEVDEDDSKIEADKEKAEGNKFYKARQFDEAIEHYNKAWELHKDITYLNNRAAAEYEKGEYETAISTLNDAVEQGREMRADYKVISKSFARIGNAYHKLGDLKKTIEYYQKSLTEHRTADILTKLRNAEKELKKAEAEAYVNPEKAEEARLEGKEYFTKSDWPNAVKAYTEMIKRAPEDARGYSNRAAALAKLMSFPEAIADCNKAIEKDPNFVRAYIRKATAQIAVKEYASALETLDAARTKDAEVNNGSSAREIDQLYYKASQQRFQPGTSNETPEETYQRAMKDPEVAAIMQDPVMQSILQQAQQNPAALQEHMKNPEVFKKIQTLIAAGIIRTGR
notes: Sti1, yeast cochaperone of Hsp70 and Hsp90, full length; also called wild-type Sti1; full-length Sti1; source: E. coli BL21 (DE3) Codon Plus, purified (Hi-Trap, Superdex 200); not shown: 6xHis-SUMO or thrombin-cleavable 6xHis, N-terminal, cleaved
- stoichiometry N (yHsp70 (Ssa1) [1]): 1

B2: Sti1 R469A (natural protein, S. cerevisiae, UniProt P15705 1-589, looked up)
chain: B1 chain with R469A
notes: source: E. coli BL21 (DE3) Codon Plus, purified (Hi-Trap, Superdex 200); not shown: 6xHis-SUMO or thrombin-cleavable 6xHis, N-terminal, cleaved
- binding result (yHsp70 (Ssa1) [2]): binds

More lines, now with the values ahead:

- binding result [3]: binds
- binding result (yHsp90 (Hsp82)): binds
- binding result (yHsp70 (Ssa1) [2]): binds
B3: Sti1 N39A (natural protein, S. cerevisiae, UniProt P15705 1-589, looked up)
chain: B1 chain with N39A
notes: also called TPR1-defective construct; source: E. coli BL21 (DE3) Codon Plus, purified (Hi-Trap, Superdex 200); not shown: 6xHis-SUMO or thrombin-cleavable 6xHis, N-terminal, cleaved

- binding result [3]: binds
- binding result (yHsp90 (Hsp82)): binds
- binding result (yHsp70 (Ssa1) [2]): binds
B4: Sti1 TPR2A–TPR2B (domain or fragment, S. cerevisiae)
chain: ADKEKAEGNKFYKARQFDEAIEHYNKAWELHKDITYLNNRAAAEYEKGEYETAISTLNDAVEQGREMRADYKVISKSFARIGNAYHKLGDLKKTIEYYQKSLTEHRTADILTKLRNAEKELKKAEAEAYVNPEKAEEARLEGKEYFTKSDWPNAVKAYTEMIKRAPEDARGYSNRAAALAKLMSFPEAIADCNKAIEKDPNFVRAYIRKATAQIAVKEYASALETLDAARTKDAEVNNGSSAREIDQLYYKASQ
notes: TPR2A-TPR2B segment of Sti1; also called TPR2A–TPR2B fragment; TPR1-lacking construct; source: E. coli BL21 (DE3) Codon Plus, purified (Hi-Trap, Superdex 200); not shown: 6xHis-SUMO or thrombin-cleavable 6xHis, N-terminal, cleaved
